Experimental findings from publication PMC12377726 (Proceedings of the National Academy of Sciences of the …, 2025) are described below.

B1: G001_gp1_V08_VRC01c_2021-0068 (antibody, V domains shown)
VH: QVQLVQSGAEVKKPGASVKVSCKASGYTFTGYYLHWVRQAPGQGLEWMGWINPNSGGTNYAQKFQGWVTMTRTTSISTAYLELSRLRSDDTAVYYCARSVYFDSSGFYYGYWGQGTLVTVSS
VL: DIQMTQSPSTLSASVGDRVTITCRASQSISSWLAWYQQKPGKAPKLLIYKASSLESGVPSRFSGSGSGTEFTLSISSLQPDDFATYYCQQYETFGQGTKVEIK
B2: G001_gp1_V10_VRC01c_161 (antibody, V domains shown)
VH: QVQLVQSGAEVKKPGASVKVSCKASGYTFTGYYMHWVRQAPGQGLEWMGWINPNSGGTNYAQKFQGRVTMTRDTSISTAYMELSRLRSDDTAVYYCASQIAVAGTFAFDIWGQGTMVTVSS
VL: DIQMTQSPSTLSASVGDRVTITCRASQSISSWLAWYQQKPGKAPKLLIYKASSLESGVPSRFSGSGSGTEFTLTISSLQPDDFATYYCQQYYTFGQGTKLEIK
B3: G001_gp1_V10_VRC01c_162 (antibody, V domains shown)
VH: QVQLVQSGAEVKNPGASVKVSCKASGYTFSGYYMHWVRQAPGQGLEWMGWINPNSGGTNYAQKFQGRVTMTRDTSISTAYMALSRLRSDDTAVYYCARPAPYDSSGYNWGYWGQGTLVTVSS
VL: DIQMTQSPSTLSASVGDRVTITCRASQSMNNWLAWYQQKPGKAPKLLIYKASTLESGVPSRFSGSGSGTEFTLTISSLQPDDFATYYCQQYETFGQGTKVEVK
B4: G001_gp1_V08_VRC01c_2021-0076 (antibody, V domains shown)
VH: QVQLVQSGAEVKKPGASVKVSCKASGYTFTDYYIHWVRQAPGQGLEWMGWINPNSGGTNYARKFQGRVTMTRATSISTVYMELSRLRSDDTAVYYCARGYCTVGWCFDLWGRDTLVTVSS
VL: DIQMTQSPSTLSASVGDRVTITCRASQSIGNWLAWYQQKPGRAPKLLIYQASSSESGVPSRFSGSGSGTEFTLTISSLQPDDFATYYCQQYETFGQGTKVEIK
B5: G001_gp1_V08_VRC01c_2021-0069 (antibody, V domains shown)
VH: QVQLVQSGAEVKKPGASVKVSCKASGYTFTDYYIHWVRQAPGQGLEWMGWINPNSGGTNYAQKFQDWVTMTRDTSVGTAYMELSRLRSDDTAVYYCARGIWSSWHFDVWGRGTLVTVPS
VL: DIQVTQSPSTLSASVGDRVTITCRASQSISNSLAWYQQKPGKAPNLLIYKASILESGVPSRFSGSGSGTEFTLTISSLQPDDFATYYCQQYETFGQGTKVEVT
B6: G001_gp1_V08_VRC01c_2021-0075 (antibody, V domains shown)
VH: QVQLVQSGAEVKKPGASVKVSCKASGYTFTDYYIHWVRQAPGQGLEWMGWINPNSGGPNYAQKFQDWVTMTRDTSISTAHMELSSLRSDDTAVYYCARGVAHTGFEFGYWGQGTLVTVSS
VL: DIQMTQSPSTLSASVGDRVTITCRASQSISSWLAWYQQKPGKAPKLLIYKASTLESGVPSRFSGSGSGTEFTLTINSLQPDDFATYYCQQYETFGQGTKVEIK
B7: G001_gp1_V10_VRC01c_163 (antibody, V domains shown)
VH: not shown
VL: DIVMTQSPDSLAVSLGERATINCKSSQSVYYSSNKKNYLAWYQQKPGQPPKLLIYWTSTRESGVPDRFSGSGSGTDFTLTISSLQAEDVAVYYCQQYWTFGQGTKVEIK
B8: G001_gp1_V10_VRC01c_159 (antibody, V domains shown)
VH: QVQLVQSGAEVKKPGASVKVSCKASGYTFADYYIHWVRQAPGQGLEWMGWINPNSGGTNYAQKFQGRVTMTRDTSITTAYMELSRLGSDDTAVYYCARAYYGDYGDYWGQGTLVTVSS
VL: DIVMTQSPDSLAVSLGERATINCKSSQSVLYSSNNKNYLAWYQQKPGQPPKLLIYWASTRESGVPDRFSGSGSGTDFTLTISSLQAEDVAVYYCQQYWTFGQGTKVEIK
B9: G001_gp1_V10_VRC01c_164 (antibody, V domains shown)
VH: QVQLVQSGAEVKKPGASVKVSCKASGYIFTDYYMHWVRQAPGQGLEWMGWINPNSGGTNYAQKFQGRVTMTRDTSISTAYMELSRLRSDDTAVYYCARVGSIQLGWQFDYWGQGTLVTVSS
VL: EIVMTQSPATLSVSPGERATLSCRASQSVSSNLAWYQQIPGQAPRLLIYGTSTRATGIPARFSGSGSGTEFTLTISSLQSEDFAVYYCQQYETFGQGTKLEIK
B10: G001_gp1_V08_VRC01c_2021-0057 (antibody, V domains shown)
VH: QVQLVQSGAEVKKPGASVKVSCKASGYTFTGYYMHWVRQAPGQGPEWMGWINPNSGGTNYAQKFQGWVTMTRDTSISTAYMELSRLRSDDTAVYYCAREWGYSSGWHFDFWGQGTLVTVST
VL: EIVLTQSPGSLSLSPGERATLSCRASQSGSSRYLAWYQQKPGQAPRLLIYGASNRATGIPNRFSGSGSGTDFVLTISRLEPEDFAVYYCQQYESFGPGTKVDIK
B11: G001_gp1_V08_VRC01c_2021-0059 (antibody, V domains shown)
VH: QAQLMQSGAEVKKPGASVKVSCKASGYTFTDYYMHWVRQAPGQGLEWMGWINPNSGGTNYAQKFQGWVTMTRDTSISTAFMELSRLRSDDTAVYFCATTNRYTSTWLFDYWGQGTLVTVSS
VL: EIVLTQSPGTLSLSPGERATLSCRASQSVSSSYLAWYQQKPGQAPRLLIYGASNRATGIPDRFSGSGSGTDFTLTISRLEPEDFAVYYCQQYESFGQGTKLEIK
B12: G001_gp1_V08_VRC01c_2021-0073 (antibody, V domains shown)
VH: QVQLVQSGAEVKKPGASVKVSCKASGYTFTGYYMHWVRQAPGQGLEWMGWINPNSGGTNYAQKFQDWVTMTRDTSISTAYMELRRLRSDDTAVYYCARGMSAKWFDSWGQGTLVTVSS
VL: EIVLTQSPGTLSLSPGERATLSCRASQSFSNSYVAWYQQKPGQGPRLLIYGASSRATGIPDRFSGSGSGTDFTLTISRLEPEDFAVYYCQQYETFGQGIKLEIT
B13: G001_gp1_V08_VRC01c_2021-0063 (antibody, V domains shown)
VH: QVHLVQSGAEVKKPGASVKVSCKASGYTFTGYYMHWVRQAPGQGLEWMGWINPNSGGTNYAQKFQGRVTVTRDTSISTAYMELSRLRSDDTAVYYCATQTHSSGWFVGNNWHFDLWGPGTLVTVSS
VL: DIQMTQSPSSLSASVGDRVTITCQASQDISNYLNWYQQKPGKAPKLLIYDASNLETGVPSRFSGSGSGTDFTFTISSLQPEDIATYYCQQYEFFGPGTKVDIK
B14: G001_gp1_V08_VRC01c_2021-0066 (antibody, V domains shown)
VH: QVQLVQSGAEVKKPGASVKVSCKASGYTFTGYYMHWVRQAPGQGLEWMGWINPNSGGTNYALKFQDWVTMTRDTSISTVYMELSRLRYDDTAVYYCARVNGDYGWNFDLWGRGTPVTVSS
VL: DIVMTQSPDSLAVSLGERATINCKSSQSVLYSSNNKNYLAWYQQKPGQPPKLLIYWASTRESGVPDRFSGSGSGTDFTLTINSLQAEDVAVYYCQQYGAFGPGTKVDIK
B15: G001_gp1_V08_VRC01c_2021-0060 (antibody, V domains shown)
VH: QVQLVQSGAEAKKPGASVKVSCKASGYTFTGYYMHWVRQAPGQGLEWMGWINPNSGGTNYAQKFQDWVTMTRDTSISTAYMELNRLRSDDTAVYYCATTGGTAVTAAHRWYFDLWGRGTLVTVSS
VL: EIVLTQSPGTLSLSPGDRATLSCRASQSVSSSYLAWYQQKPGQAPRLLIYGAASRATGIPDRFSGSGSETDFTLTISRLEPEDSAVYYCQHYEGFGQGTRLEIK
B16: G001_gp1_V08_VRC01c_2021-0072 (antibody, V domains shown)
VH: QVQLVQSGAEVKKPGASVKISCKASGYTFSGYYMHWVRQAPGQGLEWMGWINPNSGGTNYAQKFQDWVTMTRDTSISTVYMELSRLRSDDTAVYYCAREWCSGGTCYSGPTFDFWGQGTLVTVSS
VL: EIVLTQSPGTLSLSPGERATLSCRASQSVSSNYLAWYQQKSGQAPRLLIYGASSRATGIPDRFSGSGSGTDFTLTISRLEPEDFAVYYCQHYETFGQGTKVEIK
B17: G001_gp1_V08_VRC01c_2021-0062 (antibody, V domains shown)
VH: QVQLVQSGAEVKKPGASVKVSCKASGYTFTGYYIHWVRQAPGQGLEWMGWINPNSGGTNYAQEFQDWVTMTRDTSISTAYMELSRLSSDDTAVFYCARAKYYDAWSGYYFDFWGQGTLVTVSS
VL: DIQMTQAPSTLSASVGDRVTITCRASETTSSWVAWYQQKPGKAPKVLIYDASSLQSGVPSRFSGSGSGTEFTLTISSLQPDDFATYYCQQYNTFGGGTKVEIK
B18: G001_gp1_V08_VRC01c_2021-0081 (antibody, V domains shown)
VH: QVQLVQSGAEVKKPGASVKVSCKASGYTFTDHYMHWVRQAPGQGLEWMGWINPNSGGTNYAQKFQGWVTMTRDTSVSTAYMEVRRLRSDDTAVYYCAIIHYRRSSWEFAYWGQGTLVTVSS
VL: DIQMTQSPSSLSASVGDRVTVTCQASQDISNSLNWYQQKPGKAPKLLIYGASNLETGVPSRFSGSGSGTDFTFTISSLQPEDIGTYYCQQYETFGQGTKLEIR
B19: G001_gp1_V08_VRC01c_2021-0065 (antibody, V domains shown)
VH: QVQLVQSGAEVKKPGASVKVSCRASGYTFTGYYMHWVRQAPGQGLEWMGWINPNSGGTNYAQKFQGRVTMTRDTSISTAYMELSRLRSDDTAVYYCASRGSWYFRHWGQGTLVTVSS
VL: DIQMTQSPSSLSASVGDRVTITCQARHDISKYLNWYQQKPGKAPKLLIYDASDLETGVPSRFSGSGSGTDFTFTISSLQPEDIATYYCQQYDSFGGGTRVEIK
B20: G001_gp1_V08_VRC01c_2021-0077 (antibody, V domains shown)
VH: QVQLVQSGAEVKKPGASVKVSCKASGYTFTDYYMHWVRQASGQGLEWMGWINPNSGGTNYAQEFQGRVTMTRDTSISTAYMELSRLRYDDTAVYYCASGGYSRTWSFNIWGLGTMVTVSS
VL: DIQMTQSPSSLSASVGDRVTITCQASQDISTYLNWYQQKPGKAPKLLIYDATNLETGVPSRFSGSGSGTDFTFTISSLQPEDIATYYCQQYETFGQGTRLEIK
B21: G001_gp1_V08_VRC01c_2021-0082 (antibody, V domains shown)
VH: QVQLVQSGTEVKKPGASVKVSCKASGYTFTGYYIHWVRQAPGQGLEWMGWINPNSGGTNYAQKFQGWVTMTRDTSISTAYMELRRLTSVDTAVYYCARARSGYSSGWYWAYWGQGTLVTVSS
VL: DIQMTQSPSSLSASVGDRVTITCQASQDISNYLNWYQQKPGKAPKLLIYDASNLETGVPSRFSGSGSGTDFTFTISSLQPEDIATYYCQQYEFFGGGTKVEIK
B22: G001_gp1_V08_VRC01c_2021-0078 (antibody, V domains shown)
VH: QVQLVQSGAEVKKPGASVKVSCKASGYTFTGYYMHWVRQAPGQGLEWMGWINPNSGGTNFAQKFQGRVTMTRGTSITTTYMELSRLRSDDTAVYYCARVSQYRTGWYFGYWGQGTLVTVSS
VL: DIQMTQSPSSLSASVGDRVTITCQASQDISNYLNWYQQKPGKAPKLLIYDASNLETGVPSRFSGSGSGTDFTFTISSLQPEDIATYYCQQYEFFGGGTKVEIK
B23: G001_gp1_V08_VRC01c_2021-0074 (antibody, V domains shown)
VH: QVQLVQSGAEVKKPGASVKVSCKASGYTFTDYYMHWVRQAPGQGLEWMGWINPNSGGTNYAQKFQGWVTMTRDTSVSTAYMELRRLRSDDTAVYYCASGRGSSGWALDYWGQGTLVTVSS
VL: DIQMTQSPSSLSASVGDRVTITCQASQDISNYLNWYQQKPGKAPKLLIYDASILETGVPSRFSGSGSGTEFTFTISSLQPEDIATYYCQQYEAFGQGTKLEIK
B24: G001_gp1_V10_VRC01c_166 (antibody, V domains shown)
VH: not shown
VL: DIQMTQSPSSLSASVGDRVTITCQASQDISNYLNWYQQKPGKAPKLLIYDASNLETGVPSRFSGSGSGTDFTFTISSLQPEDIATYYCQQYNTFGQGTKLEIK
B25: G001_gp1_V10_VRC01c_160 (antibody, V domains shown)
VH: QVQLVQSGAEVKKPGASMKVSCEASGYTFTDYYMHWVRQAPGQGLEWMGWINPNSGGTNYAQKFQGRVTMTRDTSISTAYMELSRLRSDDTAVYYCATSIRDYLSGKVWYLGLWGRGTLVTVSS
VL: DIQMTQSPSSLSASVGDRVTITCQASQDISNYLNWYQQKPGKAPKLLIYDASNLETGVPSRFSGSGSGTDFTFTITSLQPEDIATYYCQQYETFGQGTKVEIK

In the experiment the target is eOD-GT8 (engineered outer domain germline-targeting version 8), monomer (HIV-1 gp120 engineered outer domain, …).
As to B1, the binding result is “binds”.
The entry for B2 is “binds”.
Take B3: the binding result is “binds”.
B4: the binding result was “binds”.
The entry for B5 is “binds”.
For B6, the binding result is given as “binds”.
The entry for B7 is “binds”.
The entry for B8 is “binds”; for B9 it is “binds”; for B10 it is “binds”.
The entry for B11 is “binds”; for B12 it is “binds”.
For the molecule B13, the binding result is given as “binds”.
Under B14 stands “binds”; under B15, “binds”; under B16, “binds”.
The entry for B17 is “binds”; for B18 it is “binds”; for B19 it is “binds”.
The entry for B20 is “binds”.
As to B21, the binding result is recorded as “binds”.
The entry for B22 is “binds”; for B23 it is “binds”; for B24 it is “binds”.
Under B25 stands “binds”.
